Source: patent US20080160570

Molecular target: fusion protein ubiquitin-growth hormone (hybrid polypeptide)
Sequence (chain, as listed by the source): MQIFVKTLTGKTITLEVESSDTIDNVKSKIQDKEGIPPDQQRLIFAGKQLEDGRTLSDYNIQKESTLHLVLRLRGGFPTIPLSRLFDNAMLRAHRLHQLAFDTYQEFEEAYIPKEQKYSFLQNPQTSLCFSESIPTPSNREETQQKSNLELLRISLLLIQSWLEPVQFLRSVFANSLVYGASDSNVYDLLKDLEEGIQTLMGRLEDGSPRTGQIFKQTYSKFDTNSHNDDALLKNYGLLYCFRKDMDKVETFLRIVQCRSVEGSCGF

B1: UBP1ΔC (UBP1 protease mutant) (protein)
chain: GGDHLNYIWESWSEMTTNFRNNNSLSRWLPRSKFTHLDEEILKRGGFIAGLWNDGNTCFMNSWLQSLASSRELMEFLDNNWIRTYEEIEQNEHNEEGNGQESAQDEATHKKNTRKGGKWYGKHKKKLNRKSSSKEDEEKSQEPDITFSWALRDLLSALNAKYYRDKPYFKTNSLLKAMSKSPRKNILLGYDQEDAQEFFQNILAELESNWKSLNTEKLDTTPWAKSELPDDALWGQLNLGEWGTWYIPTEQIDPNSILHDKSIQNFTPFKLMTPLDGITAERIGCLQCGENGGIRYSWFSGLSLNLPNENIGSTLKLSQLLSDWSKPEIIEGWECNRCALTAAHSHLFGQLKEFEKKPEGSIPEKPINAWKDRWHQIEEWLAKPWIDDEDYKKLHTANMWRKCSKSKQILISRPPPLLSIHINRSWFDPRTYMIRKNNSKWLFKSRLNLAPWCCDINEINLDARLPMSKKEKAAQQDSSEDENIGGEYYTKLHERFEQEFEDSEEEKEYDDAEGNYASHYNHTKDISNYDPLNGEWDGWTSDDEDEYIEETDALGNTIKKRIIEHSDWENENWKDNEELQEIDNWSLDEPKINWEDQLETSSDEEDWIPAPPINYARSFSTWPATPLTYSLRSWIWHYGTHNYGHYIAFRKYRGCWWRISDETWYWWDEAEWLSTPGWFMLFYEYDFDEETGKMKDDLEAILSNNEEDDEKEQEQKGWQEPKESQEQGEGEEQEEGQEQMKFERTEDHRDISGKDWNGSHHHHHH
  enzymatic cleavage of the carrier protein ubiquitin from growth hormone (37° C., 1 h); amount of fusion protein per amount of enzyme: UBP1Δ C 1 µg-14 µg protein

B2: UBP1ΔC2 (UBP1 protease mutant) (protein)
chain: GGFIAGLVNDGNTCFMNSVLQSLASSRELMEFLDNNVIRTYEEIEQNEHNEEGNGQESAQDEATHKKNTRKGGKVYGKHKKKLNRKSSSKEDEEKSQEPDITFSVALRDLLSALNAKYYRDKPYFKTNSLLKAMSKSPRKNILLGYDQEDAQEFFQNILAELESNVKSLNTEKLDTTPVAKSELPDDALVGQLNLGEVGTVYIPTEQIDPNSILHDKSIQNFTPFKLMTPLDGITAERIGCLQCGENGGIRYSVFSGLSLNLPNENIGSTLKLSQLLSDWSKPEIIEGVECNRCALTAAHSHLFGQLKEFEKKPEGSIPEKPINAVKDRVHQIEEVLAKPVIDDEDYKKLHTANMVRKCSKSKQILISRPPPLLSIHINRSVFDPRTYMIRKNNSKVLFKSRLNLAPWCCDINEINLDARLPMSKKEKAAQQDSSEDENIGGEYYTKLHERFEQEFEDSEEEKEYDDAEGNYASHYNHTKDISNYDPLNGEVDGVTSDDEDEYIEETDALGNTIKKRIIEHSDVENENVKDNEELQEIDNVSLDEPKINVEDQLETSSDEEDVIPAPPINYARSFSTVPATPLTYSLRSVIVHYGTHNYGHYIAFRKYRGCWWRISDETVYVVDEAEVLSTPGVFMLFYEYDFDEETGKMKDDLEAILSNNEEDDEKEQEQKGVQEPKESQEQGEGEEQEEGQEQMKFERTEDHRDISGKDVNGSHHHHHH
  enzymatic cleavage of the carrier protein ubiquitin from growth hormone (37° C., 1 h); amount of fusion protein per amount of enzyme: UBP1Δ C 2 1 µg-60 µg protein
